The chains are these.
T1: Recombinant human CTLA-4-his protein (CT4-H5229, Acro Bio) (human, UniProt P16410 36-161)
T1 construct: extracellular domain; Bought protein; also called Human CTLA-4^ECD-his; not shown: his tag
T1 sequence (looked up): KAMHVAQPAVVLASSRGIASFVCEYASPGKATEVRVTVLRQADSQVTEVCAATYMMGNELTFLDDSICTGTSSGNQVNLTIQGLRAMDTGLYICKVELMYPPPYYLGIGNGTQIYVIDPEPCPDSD

T2: human CTLA-4 expressed on cells (293-hCTLA-4 cells; CTLA-4-expressing CHO-K1 cells) (human, UniProt P16410 36-223)
T2 construct: also called CD152; cell-expressed CTLA-4
T2 sequence: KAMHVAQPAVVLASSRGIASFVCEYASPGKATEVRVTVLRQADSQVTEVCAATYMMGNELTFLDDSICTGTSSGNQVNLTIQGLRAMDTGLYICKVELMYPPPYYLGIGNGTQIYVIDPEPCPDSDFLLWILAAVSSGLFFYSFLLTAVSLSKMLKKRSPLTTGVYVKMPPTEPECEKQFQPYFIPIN

T3: cyno CTLA-4 expressed on 293 cells (293-cynoCTLA-4 cells) (cyno, UniProt G7PL88 36-223)
T3 construct: also called cynomolgus CTLA-4
T3 sequence: T2 sequence with S14N, L106M

B1: CL5′-dPTM′ (antibody, human IgG1, V domains shown)
VH: EVQLVESGGGLIQPGGSLRLSCAVSGFTVSKNYMSWVRQAPGKGLEWVSVVYSGGSKTYADSVKGRFTISRDNSKNTLYLQMNSLRAEDTAVYYCARAVPHSPSSFDIWGQGTMVTVSS
notes: HCAb variant with PTM removal
B2: CL5′-eA-dPTM′ (antibody, human IgG1, V domains shown)
VH: B1 VH
notes: HCAb variant with PTM removal and the eA (S239D, I332E) Fc
B3: CL5-dPTM′ (antibody, human IgG1, V domains shown)
VH: B1 VH
notes: HCAb variant with PTM removal
B4: CL25-dPTM′ (antibody, human IgG1, V domains shown)
VH: B1 VH with V24A, K31S, V51I, K57T, T58Y, S105A, I108R, M114L
notes: HCAb variant with PTM removal
B5: CL11-dPTM′ (antibody, human IgG1, V domains shown)
VH: B1 VH with V24A, K31R, N32I, V51I, K57I, T58Y, N73S, L78V, H101S, S102A
notes: HCAb variant with PTM removal
B6: CL25-dPTM (antibody, human IgG1, V domains shown)
VH: B1 VH with S7T, V24A, K31S, V51I, K57T, T58Y, N83S, S105A, I108R, M114L
notes: HCAb variant with PTM removal
B7: CL5-dPTM (antibody, human IgG1, V domains shown)
VH: B1 VH with V5A, S7T, A40V, S49A, T68I, I69L, K75D, S84N
notes: HCAb variant with PTM removal
B8: CL22-dPTM (antibody, human IgG1, V domains shown)
VH: EVQLVETGGGLIQPGGSLRLSCAVSGFTVRNNYMSWARQVPGKGLEWVSVIYSGGSITYADSVKGRFIISRDNSKNTLYLQMNGLRAEDTAVYYCARAVPHAPSAFDIWGQGTMVTVSS
notes: HCAb variant with PTM removal
B9: CL3 (antibody, human IgG1, V domains shown)
VH: EVQLVEIGGGEIQPGGSLRLSCAASGFNVSKNYMSWVRQAPGKGLEWVSVIYSGGGTEYAASVKGRFNISRDSSKNMLYLQMNNLRAEDTAVYYCARAVPRPHGTDIWGQGTMVTVSS
notes: Human heavy-chain-only antibody (HCAb): two heavy chains, no light chain
B10: CL25 (antibody, human IgG1, V domains shown)
VH: EVQLVETGGGLIQPGGSLRLSCAASGFTVSSNYMSWVRQAPGKGLEWVSVIYSGGSTYYADSVKGRFTISRDNSKNTLYLQMSNLTAEDTAVYYCARAVPHSPSAFDRWGQGTLVTVSS
notes: Human heavy-chain-only antibody (HCAb): two heavy chains, no light chain; also called clone25
B11: CL22 (antibody, human IgG1, V domains shown)
VH: B8 VH with K75N
notes: Human heavy-chain-only antibody (HCAb): two heavy chains, no light chain; also called clone 22
B12: CL5 (antibody, human IgG1, V domains shown)
VH: B1 VH with V5A, S7T, T28N, A40V, S49A, T68I, I69L, K75D, S84N
notes: Human heavy-chain-only antibody (HCAb): two heavy chains, no light chain; also called HCAb clone 5
B13: CL30 (antibody, human IgG1, V domains shown)
VH: EVQLEETGGDLIQPGGSLRLSCTASGFNVSRIYMSWVRQAPGKGLEWVSVIYSGGSIYYADSVRGRFTISRDSSTNTVYLQMNSLRAEDSAVYYCARAVPHAPSNFDKWGQGTRVTVSS
notes: Human heavy-chain-only antibody (HCAb): two heavy chains, no light chain; also called clone 30

Where a chain is given by its changes, count along the chain named. Names may count otherwise.

The first assay addresses T1, Recombinant human CTLA-4-his protein …. The assay is described as follows: SPR, Biacore T200, antibody immobilised, CTLA-4-his injected, 1:1 model. How it is done:
Dissociation constants were determined by Biacore T200 (GE Healthcare), following the specifications of the instrument provided by the manufacturer. Briefly, 1 μg/mL diluted anti-CTLA-4 antibodies in 10 mM NaOAc (pH 5.0, sigma) were immobilized on flow cell of a Series S CMS sensor chip. Remaining active ester groups were blocked with 1 M ethanolamine (pH 8.5). With HBS-EP+ as the running buffer, recombinant human CTLA-4-his (CT4-H5229, AcroBio) and cynoCTLA-4-his proteins (CT4-05227, AcroBio) with five serial diluted concentrations were injected over flow cells at 30 μL/min with the association time of 180 s. Buffer flow was maintained for dissociation for 600s.
A word on the Kd: it is the concentration at which binding is half-saturated. A word on the koff: it is the first-order rate constant of dissociation. Broadly, the kon is the rate constant with which the complex forms. Take B1: the Kd stood at 0.0428 nM, the koff was 0.000229 s⁻¹ and the kon came to 5.35e+06 M⁻¹ s⁻¹.
For B2, the Kd worked out at 0.014 nM, the dissociation rate constant (koff) was found to be 7.58e-05 s⁻¹ and the kon is 5.4e+06 M⁻¹ s⁻¹.

In another assay the target is T2, human CTLA-4 expressed on cells …. The assay is described as follows: flow cytometry (MFI) on 293F-hCTLA-4 cells, Alexa 488 anti-human (H+L) detection. As for the experimental part:
Cell-based binding assay was performed to determine the binding ability of the anti-CTLA-4 antibody variants with PTM removal to human CTLA-4. The assay procedure was similar to that described in Example 3. […] Cells were centrifuged and blocked in blocking buffer (containing 2% BSA, pH 7.4 PBS buffer, w/v) at 1×10⁶ cells/mL for 15 minutes at 37° C. 200 μL of cells were dispensed to each well of the 96-well plates (2×10⁵ cells/well). The plates were centrifuged and the supernatants were discarded. The cells were resuspended in 100 μL of anti-CTLA-4 antibodies prepared in blocking buffer. The plates were incubated at 4° C. for 90 minutes and washed twice. After the blocking buffer was discarded, the cells were resuspended in 100 μL of Alexa 488-labeled anti-human (H+L) antibody (1:500, Invitrogen) and incubated at 4° C. for 1 hour. The cells were washed and resuspended in 200 μL of blocking buffer. The mean fluorescence intensity (MFI) was determined using FACS Calibur (BD).
(In flow cytometry, cells or beads pass a laser one at a time.)
Broadly, the EC50 (read off the curve) is the concentration that produces a half-maximal response. A low value points to greater potency. Take B3: the “EC50 (read off the curve)” value was about 1 nM.
For B4, the “EC50 (read off the curve)” value was about 1 nM.
Take B5: the “EC50 (read off the curve)” value is about 1 nM.
On the same count and under the same terms, as for B6, the figure is about 1 nM; as for B7, about 1 nM; as for B8, about 1 nM.

The target is the same in another assay. As to the kind of experiment: flow cytometry (MFI) on 293 cells expressing human CTLA-4, Alexa 488 anti-human (H+L) detection. As for the experimental part: (§1) The culture medium was aspirated, and the cells were washed twice with HBSS (Hanks Balanced Salt Solution, Invitrogen). The cells were treated with enzyme-free cell dissociation solution (Versene solution, Invitrogen) and collected. The cells were then washed twice with HBSS, cell counts were determined, and cells were resuspended with HBSS at 2×10⁶ cells/mL. BSA was added to the cell suspension to a final concentration of 1%, and the cells were blocked for 30 minutes on ice and then washed twice with HBSS. The cells were collected after centrifugation and resuspended in FACS buffer (HBSS+1% BSA, v/v) at 2×10⁶ cells/mL. 100 μL of the cell suspension were then added to each well of a 96-well plate. 100 μL of purified anti-CTLA-4 antibodies from Example 2 or control antibodies were added to each well of the 96-well plate and incubated for 1 hour on ice, wherein the heavy chain and light chain of the Ipilimumab analogue had amino acid sequences of SEQ ID NO.: 199 and SEQ ID NO.: 200, respectively. Cells were washed twice with FACS buffer, and 100 μL of Alexa 488-labeled anti-human (H+L) antibody (Invitrogen) were added to the 96-well plate and incubated for 1 hour on ice. The samples were washed three times with FACS buffer, and 100 μL of fixation buffer (containing 4% paraformaldehyde, v/v) were added to each well and incubated for 10 minutes. The cells were then washed twice with FACS buffer and resuspended in 100 μL of FACS buffer.
For the molecule B9, the “EC50 (read off the curve)” value was about 2 nM.
The same measure, in the same setting: with B10 the figure was about 2 nM.
On to B11, for which the “EC50 (read off the curve)” value is about 2 nM.
The same measure, in the same setting: with B12 the figure was about 2 nM; with B13, about 2 nM.

The next assay has as its target T3, cyno CTLA-4 expressed on 293 cells …. The assay is described as follows: flow cytometry (MFI) on 293 cells expressing cynomolgus CTLA-4, Alexa 488 anti-human (H+L) detection. As for the experimental part:
as §1
On to B9, for which the “EC50 (read off the curve)” value was about 1 nM.
As for B10, the “EC50 (read off the curve)” value is about 1 nM.
Take B11: the “EC50 (read off the curve)” value is about 1 nM.
Take B12: the “EC50 (read off the curve)” value was about 1 nM.
Regarding B13, the “EC50 (read off the curve)” value was about 1 nM.

Another assay has as its target T2, human CTLA-4 expressed on cells …. As to the kind of experiment: cell-based blocking assay, flow cytometry: % blocking of biotin labeled B7.1 binding to 293-hCTLA-4 cells.
Regarding B3, the “IC50 (read off the curve)” value is about 7 nM.
Take B4: the “IC50 (read off the curve)” value is about 7 nM.
On to B5, for which the “IC50 (read off the curve)” value is about 7 nM.
On to B6, for which the “IC50 (read off the curve)” value was about 7 nM.
With B7, the “IC50 (read off the curve)” value was about 7 nM.
For B8, the “IC50 (read off the curve)” value was about 7 nM.

A further assay shares this target. The assay is described as follows: cell-based blocking assay, flow cytometry: % blocking of biotinylated B7.1 ECD-Fc binding to 293-hCTLA-4 cells. As for the experimental part: Cell-Based Receptor-Ligand Binding assay was performed to determine the ability of the anti-CTLA-4 antibodies to block the binding of CTLA-4 to its ligands B7.1. Recombinant B7.1^ECD-Fc protein (B71-H5259, Acro Bio) was biotinylated using EZ-LINK NHS-PEG12-Biotin (Thermo Scientific#21312) according to the manufacturer's instruction. Biotinylated B7.1^ECD-Fc protein was concentrated and free label removed by using Amicon centrifugal filter (10 kDa cut off). The extracellular domain of B7.1 corresponded to amino acids Val35-Asn242 of Uniprot database protein P33681.
The culture medium was aspirated, and the cells were washed twice with PBS. The cells were treated with enzyme-free cell dissociation solution (Versene solution, Invitrogen) and collected. Dissociation solution was neutralized by the addition of 8 mL of culture medium, and cell counts were determined. Cells were centrifuged at 300 g for 5 minutes and resuspended in blocking buffer (containing 2% BSA, pH 7.4 PBS buffer, w/v) at 1×10⁶ cells/mL. The cells were blocked for 15 minutes at 37° C. Meanwhile, the wells of 96-well round-bottom plates were blocked with 200 μL of blocking buffer for 1 hour at 37° C. The blocking buffer was discarded, and 200 μL of cells were dispensed to each well of the 96-well plates (2×10⁵ cells/well). The plates were centrifuged at 500 g for 5 minutes, and the supernatants were discarded. The cells were resuspended in 100 μL of anti-CTLA-4 antibodies prepared in blocking buffer with varying concentrations. 100 μL of biotinylated B7.1 ECD-Fc (60 μg/mL in blocking buffer) were added to each well of 96-well plate and mixed by shaking gently. The plates were incubated at 4° C. for 90 minutes and washed twice with 200 μL blocking buffer. The blocking buffer was discarded, and the cells were resuspended in 100 μL of streptavidin-Alexa 488 solution (Invitrogen, 1:500 in blocking buffer) and incubated at 4° C. for 1 hour. The plates were washed three times with blocking buffer and added with 200 μL of blocking buffer.
The mean fluorescence intensity (MFI) was determined using FACS Calibur (BD).
On to B11, for which the “IC50 (read off the curve)” value is about 10 nM.
Take B12: the “IC50 (read off the curve)” value is about 10 nM.
Take B13: the “IC50 (read off the curve)” value is about 10 nM.
